# From the Immune Epitope Database (IEDB)
# Assays:
# [1] = biological target: HLA-A*01:01; assay: IEDB peptide-MHC binding, purified MHC/competitive/fluorescence; ≥ and ≤ were set here for values at or beyond the usual limits of such assays; settings: source organism: Mus musculus
# [2] = biological target: HLA-A*25:01; assay: as above; settings: source organism: Mus musculus
# [3] = biological target: HLA-A*26:01; assay: IEDB peptide-MHC binding, purified MHC/competitive/fluorescence; filed as Kd, often an IC50 or EC50 that approximates it; ≥ and ≤ were set here for values at or beyond the usual limits of such assays
# [4] = biological target: HLA-B*39:01; assay: as above; settings: source organism: Human immunodeficiency virus 1
# [5] = biological target: HLA-A*02:03; assay: as above
# [6] = biological target: HLA-A*02:01; assay: as above
# [7] = biological target: HLA-B*15:01; assay: as above
# [8] = biological target: HLA-A*30:01; assay: as above; settings: source organism: Human immunodeficiency virus 1
# [9] = biological target: HLA-A*02:06; assay: as above
# [10] = biological target: HLA-A*26:03; assay: as above
# [11] = biological target: HLA-A*30:01; assay: IEDB peptide-MHC binding, purified MHC/competitive/radioactivity; filed as Kd, often an IC50 or EC50 that approximates it; ≥ and ≤ were set here for values at or beyond the usual limits of such assays; settings: source organism: Vaccinia virus WR
# [12] = biological target: HLA-B*07:02; assay: IEDB peptide-MHC binding, purified MHC/direct/fluorescence; filed as Kd, often an IC50 or EC50 that approximates it; ≥ and ≤ were set here for values at or beyond the usual limits of such assays
# [13] = biological target: HLA-B*08:02; assay: as above
# [14] = biological target: HLA-A*03:01; assay: as above
# [15] = biological target: HLA-A*11:01; assay: as above; settings: source organism: Camelpox virus M-96
# [16] = biological target: HLA-A*31:01; assay: as above; settings: source organism: Camelpox virus M-96
# [17] = biological target: HLA-A*69:01; assay: as above
# [18] = biological target: HLA-B*58:01; assay: as above
# [19] = biological target: HLA-B*46:01; assay: as above
# [20] = biological target: HLA-B*48:01; assay: as above; settings: source organism: Camelpox virus M-96
# [21] = biological target: HLA-A*68:02; assay: as above; settings: source organism: Camelpox virus M-96
# [22] = biological target: HLA-B*15:17; assay: as above; settings: source organism: Camelpox virus M-96
# [23] = biological target: HLA-B*40:01; assay: as above
# [24] = biological target: HLA-B*35:01; assay: IEDB peptide-MHC binding, purified MHC/competitive/fluorescence; filed as Kd, often an IC50 or EC50 that approximates it; ≥ and ≤ were set here for values at or beyond the usual limits of such assays; settings: source organism: Vaccinia virus WR
# [25] = biological target: HLA-A*01:01; assay: as above; settings: source organism: Vaccinia virus WR
# [26] = biological target: HLA-B*57:01; assay: as above; settings: source organism: Vaccinia virus WR
# [27] = biological target: HLA-A*26:02; assay: as above; settings: source organism: Vaccinia virus WR
# [28] = biological target: HLA-B*27:05; assay: as above; settings: source organism: Vaccinia virus WR
# [29] = biological target: HLA-A*80:01; assay: IEDB peptide-MHC binding, purified MHC/direct/fluorescence; filed as Kd, often an IC50 or EC50 that approximates it; ≥ and ≤ were set here for values at or beyond the usual limits of such assays
# [30] = biological target: HLA-A*02:01; assay: IEDB peptide-MHC binding, cellular MHC/competitive/fluorescence; ≥ and ≤ were set here for values at or beyond the usual limits of such assays; settings: source organism: Homo sapiens
# [31] = biological target: HLA-A*01:01; assay: IEDB peptide-MHC binding, purified MHC/direct/fluorescence; filed as Kd, often an IC50 or EC50 that approximates it; ≥ and ≤ were set here for values at or beyond the usual limits of such assays
# [32] = biological target: HLA-A*30:01; assay: as above; settings: source organism: Bacillus cereus NVH0597-99
# [33] = biological target: HLA-A*02:19; assay: as above; settings: source organism: Influenza A virus H3N2
# [34] = biological target: HLA-B*44:02; assay: as above; settings: source organism: Influenza A virus (A/turkey/Minnesota/1200/1980(H7N3))
# [35] = biological target: HLA-A*24:02; assay: as above; settings: source organism: Influenza A virus (A/turkey/Minnesota/1200/1980(H7N3))
# [36] = biological target: HLA-A*02:11; assay: as above; settings: source organism: Influenza A virus H3N2
# [37] = biological target: HLA-A*02:03; assay: as above; settings: source organism: Influenza A virus H3N2
# [38] = biological target: HLA-A*02:12; assay: as above; settings: source organism: Influenza A virus H3N2
# [39] = biological target: HLA-A*02:01; assay: as above; settings: source organism: Influenza A virus (A/Puerto Rico/8/34/Mount Sinai(H1N1))
# [40] = biological target: HLA-B*15:01; assay: as above; settings: source organism: Influenza A virus (A/turkey/Minnesota/1200/1980(H7N3))
# [41] = biological target: HLA-B*08:01; assay: as above; settings: source organism: Influenza A virus (A/turkey/Minnesota/1200/1980(H7N3))
# [42] = biological target: HLA-A*02:06; assay: as above; settings: source organism: Influenza A virus H3N2
# [43] = biological target: HLA-B*27:05; assay: as above; settings: source organism: Influenza A virus (A/turkey/Minnesota/1200/1980(H7N3))
# [44] = source organism: Human immunodeficiency virus 1
# [45] = source organism: Camelpox virus M-96
# [46] = source organism: Vaccinia virus WR
# [47] = source organism: Bacillus anthracis
# [48] = source organism: Influenza A virus (A/turkey/Minnesota/1200/1980(H7N3))
sequence,measurement,setting,value
FSSCPVAY,IC50,[1],1.94 µM
same,IC50,[2],≥ 20 µM
KLKSLYNTV,Kd,[3]; [44],≥ 20 µM
same,Kd,[4],≥ 20 µM
same,Kd,[5]; [44],0.0131 µM
same,Kd,[6]; [44],0.0261 µM
same,Kd,[7]; [44],≥ 20 µM
same,Kd,[8],0.0013 µM
same,Kd,[9]; [44],0.0174 µM
same,Kd,[10]; [44],≥ 20 µM
KVFDKSLLY,Kd,[11],0.071 µM
same,Kd,[12]; [45],≥ 20 µM
same,Kd,[13]; source organism: Variola virus,≥ 20 µM
same,Kd,[14]; [45],0.035 µM
same,Kd,[15],0.004 µM
same,Kd,[16],2.76 µM
same,Kd,[17]; [45],≥ 20 µM
same,Kd,[18]; source organism: Variola virus,0.005 µM
same,Kd,[19]; [45],≥ 20 µM
same,Kd,[20],≥ 20 µM
same,Kd,[21],≥ 20 µM
same,Kd,[22],0.0023 µM
same,Kd,[23]; [45],≥ 20 µM
same,Kd,[3]; [46],1.75 µM
same,Kd,[5]; [46],≥ 20 µM
same,Kd,[6]; [46],≥ 20 µM
same,Kd,[24],0.0082 µM
same,Kd,[25],2.48 µM
same,Kd,[7]; [46],0.374 µM
same,Kd,[26],0.424 µM
same,Kd,[27],1.99 µM
same,Kd,[9]; [46],3.1 µM
same,Kd,[28],≥ 20 µM
same,Kd,[10]; [46],≥ 20 µM
RVERIKSEY,Kd,[29]; source organism: Yellow fever virus,0.0338 µM
SPSVDKARAEL,IC50,[30],≥ 200 µM
TTLRYPIGK,Kd,[31]; [47],≥ 20 µM
same,Kd,[29]; [47],≥ 20 µM
same,Kd,[32],0.081 µM
VTTEVAFGL,Kd,[33],0.656 µM
same,Kd,[34],≥ 20 µM
same,Kd,[12]; [48],≥ 20 µM
same,Kd,[35],≥ 20 µM
same,Kd,[13]; source organism: Influenza A virus H3N2,≥ 20 µM
same,Kd,[36],≤ 0.001 µM
same,Kd,[37],0.517 µM
same,Kd,[14]; [48],≥ 20 µM
same,Kd,[38],0.186 µM
same,Kd,[39],0.069 µM
same,Kd,[17]; [48],≥ 20 µM
same,Kd,[18]; [48],0.494 µM
same,Kd,[31]; [48],≥ 20 µM
same,Kd,[40],≥ 20 µM
same,Kd,[41],≥ 20 µM
same,Kd,[19]; [48],≥ 20 µM
same,Kd,[42],≤ 0.001 µM
same,Kd,[43],≥ 20 µM
same,Kd,[23]; source organism: Influenza A virus (A/Puerto Rico/8/34/Mount Sinai(H1N1)),15 µM
